Experimental data: the DeepSol protein solubility set

experiment: soluble on expression in E. coli; label from the status in PepcDB or PDB records

Sequence	soluble on expression in E. coli
MSLQASEQVPSIQIGEPGVTVEAGDHICAFYPTLAERDEILLPYLSEGMLAGEKCIAVLDTDDLDGIRQAVSGQGLPSPKDGNQLELRRSRNAYLANGSFETEAMLKFWEDHVGAAVAEGFPFARVAGEMTWALSNLPGVDQLVGYEAKLNRLLPRYPQVVLCLYELERFDGEVLVDVLKTHPKVLLGGMVLDNPYYLEPEEFLASREGHHHHHH	soluble
LYRKGGVYVVIGGAGYIGEAWSEYMIRRYQAQIVWIGRSQLNAAIQSKIDRLSALGPEPFYIAADAADKHSLQQAYEQVKKRHPHIHGIVHSAMVLFEQSLEKMKPEEFTAGLAAKIDVSIRMAQVFRQENVDFVLFFSSLVAHIKNVKQSHYASGCTFADAFAHQLSQSWA	not soluble
MGSDKIHHHHHHMASILAVDVGTTSIKAGIVSTENFEAESTQSTRAVVEYPKKHWAEKDPEKLWNSIVEVCKPLAEKANPDAIVFGAHMAGVVPVDGEGNALRNIITWLDERAAGLPEDVWKGLIKIQGYSLTKLIKFLRLTGGAPSRTGKDPISKIVWIRENEPDVFGKTFKMLDVRGYLVARATGNFVTSPDEAHLTWLADTRGGKARWSESILKDYALSASLFPEIKNCTEIAGYLRPEVRKEFGLEGDVPVMVGSGDVAAAAVGSGAVKDYECHIYVGTSDWVAAHIPQRKTDIFHFIGSLLSAIPEKYLLIAEQEVAAGALEWAMRLVGIQGEYELVKELVEKAPAGKLIFMPWFYGERAPIDDPYVRGGLVNVGLDSGREEVLRAMMEGVALNIKWVFGYVEKMTAPQQMVSIVGGGALFDIWCQIISNAVRRPLRRIKHPEETGLRGLATMAAVGLGEESFESAAAKFEVDRVFKPDDEEAKVYDRLFEYYKELYSKLKKVYRKLNSAEY	not soluble
MSLRIIHICLWLLTGIFAEVSLSAQNPFIYHKGKTYKDVAAYRMEEIIDLNTHTPSTPILYEQQVPEHQSTLSYKVALPLYVRGIFFSRDSRPGDYQWPNNTNRLLPWMFNHLEDLTRSDYASIPSNALPSASGDALLLELADGEYLFAKAIAGSNSLSWFQVNQDGTLTLYVSTLGEDALTGRLPLLIFRKSSSVYHVFSDAYDSLIADKAVSALRKRADKQYFNAFDYLGWCTWEHYHYDIDETKILNDIDAIEASGIPVRYVLIDDGHIANKNRQLTSLVPDKKRFPNGWSRIMKRKQADKIRWIGLWYSLSGYWMGISAENDFPPEIRQVLHSYNGSLLPGTSTEKIETWYEYYVRTMKEYGFDFLKIDNQSFTLPLYMGGTQVIRQAKDCNLALEHQTHRMQMGLMNCMAQNVLNIDHTLYSSVTRASIDYKKYDENMAKSHLFQSYTNTLILGQTVWPDHDMFHSCDTVCGSLMARSKAISGGPVYLSDSPSEFIADNIRPLIDETGKIFRPAAPAIPTPESILTNPLQSGKAYREGHHHHHH	soluble
MQIKLANPRGFCAGVDRAIEIVNRALEVFGPPIYVRHEVVHNKFVVEDLRSRGAIFVEELEQVPDDVIVIFSAHGVSQAVRTEAAGRGLKVFDATCPLVTKVHIEVARYSRDGRECILIGHAGHPEVEGTMGQYDAVNGGAIYLVEDEADVASLEVRNPESLAFVTQTTLSMDDTSRVIDALRKRFPAIGGPRKDDICYATQNRQDAVKQLADECDVVLVVGSPNSSNSNRLRELAERMATPAYLIDGAEDMQKGWFDGVERIGITAGASAPEVLVRGVIQQLQAWGATGADELAGREENITFSMPKELRVKSLLLEHHHHHH	not soluble
MEEELPLFSGDSGKPVQATLSSLKMLDVGKWPIFSLCSEEELQLIRQACVFGSAGNEVLYTTVNDEIFVLGTNCCGCLGLGDVQSTIEPRRLDSLNGKKIACLSYGSGPHIVLATTEGEVFTWGHNAYSQLGNGTTNHGLVPCHISTNLSNKQVIEVACGSYHSLVLTSDGEVFAWGYNNSGQVGSGSTVNQPIPRRVTGCLQNKVVVTIACGQMCCMAVVDTGEVYVWGYNGNGQLGLGNSGNQPTPCRVAALQGIRVQRVACGYAHTLVLTDEGQVYAWGANSYGQLGTGNKSNQSYPTPVTVEKDRIIEIAACHSTHTSAAKTQGGHVYMWGQCRGQSVILPHLTHFSCTDDVFACFATPAVTWRLLSVEPDDHLTVAESLKREFDNPDTADLKFLVDGKYIYAHKVLLKIRCEHFRSSLEDNEDDIVEMSEFSYPVYRAFLEYLYTDSISLSPEEAVGLLDLATFYRENRLKKLCQQTIKQGICEENAIALLSAAVKYDAQDLEEFCFRFCINHLTVVTQTSGFAEMDHDLLKNFISKASRVGAFKN	not soluble
MAHMNLLSVTTGDGGLSRYLEEVRRFPMLEPQEEYMLAQRYRKHNDLKAAHKLVTSHLRLVAKIAVGYRGYGLPIGEVISEGNVGLMKAVKRFEPERGFRLATYAIWWIKASIQEYVLRSWSLVKMGTTANQKRLFFNLRKLKSRLQALDNGDLNAEQVKEIAIQLNVTEDEVVSMNRRLGGDTSLNAPLRTKEGENSEWQDWLVDDSNNQEQTLIEQNELENRRSMLTNALDNLNEREKRIFKARRLSDIPLTLEELSSEFNISRERVRQIEMRAFEKIQNSIKASALSQNQV	not soluble
MQKLKQQVFDANMDLPRYGLVTFTWGNVSAIDRERGLVVIKPSGVAYETMKVDDMVVVDMDGKVVEGRYRPSSDTATHLALYQRYPSLGGVVHTHSTHATAWAQAGMAIPALGTTHADYFFGDIPCTRALSEEEVQGEYELNTGKVIIETLGEVEPLHTPGIVVYQHGPFAWGKDAHDAVHNAVVMEEVARMAWIARGINPALNPIDDYLMNKHFMRKHGPNAYYGQK	not soluble
MSLAQSVAGSSVLTPGLTVSGPHSHARHSATLPSAMTAFPAAPDLAPPSRAAQGERVLCAMSGGVDSSVTASLLKEQGYQVIGAMMRFWPDDKRTDTFDSCCSPDAAYEARRVAEQVGVPFYLLDYREPFQRHIVGPFLEEYARGRTPNPCVNCNTKVKFDELVKKAKMLGCRYVATGHYVKRVDNAQGEVEFHRGDDPRKDQTYFLWGTPRDALPYILFPVGELEKPQVREIAAERGLLTAQKPESQNICFVPGKVQDFVAEHLPQAQGYIREIATGEVVGEHLGTQFYTLGQKKGLGLYQSHRVRHVVHLDPDSNTVWVGDYDDCLWTGLKATDANYLLDLAELPTELEVQVRYRTAPVKAHVLHADAEGFELEFAEPQFAVAPGQSAVLYAGSRLLGGGLIADHARELPALTEGHHHHHH	soluble
RADPDPMKNTCKLLVVADHRFYRYMGRGEESTTTNYLIELIDRVDDIYRNTAWDNAGFKGYGIQIEQIRILKSPQEVKPGEKHYNMAKSYPNEEKDAWDVKMLLEQFSFDIAEEASKVCLAHLFTYQDFDMGTLGLAYVGSPRANSHGGVCPKAYYSPVGKKNIYLNSGLTSTKNYGKTILTKEADLVTTHELGHNFGAEHDPDGLAECAPNEDQGGKYVMYPIAVSGDHENNKMFSQCSKQSIYKTIESKAQECFQERSNKVGSHHHHHH	soluble
MAHHHHHHMMRRMWVPTFSAQQQHLHHAMGLKMLTYASTPSGSGVTSAASNEEMNLHDAAAIAPGPYRRVGNIFIVHCDDHPFKHSWEVNRMLRELRLEFKGQTTIVPDIPQVRKRIWRVRHIVKVDVLDLDEAKALIGVPEHISFTDLASQLPPSFGRVKAVPSPVIRSKMNFMKLRRMRLRDVLHRDALELRLLELKRSAMKNAEQQKHAQK	not soluble
MGSDKIHHHHHHMTFILNSQNVFNYLLEKGLCNQSEQPPAKIEQLTAKNFNLLVTLPGDRKLLVKQERHNPEGKAAGEFLIEWRIQEFLQQFPNLSNYRSFLPEVLHFDVENSIIVFKYFDDYRDLMDFYTKGNSFNIEIATAIGNILGTIHRDTFNRQEYQEFFTKNSDNLMGDQVLHLVRRLERVEPEIFGIVPSDGLKFFALYQRYDSLGQAIAELGNAVTPSCLTHNDLKLNNILLHKDWQDSSNNIVRLIDWERSAWGDPAFDLGTLISSYVQIWLGSLVISNSLSIEESLRLAITPLEVLQPSISTLTQAYLKTFPEILDHRSDFLQRVVQFTGFTLIQQIQAMIQYQKSFGNMGIAMLQVAKTLLSRPVQSMPTIFGAAAVELGHLNNSPV	not soluble
MDPKPINEGMLLEDHDHGMPEEEEITEDDMNGIHNIEEDTRTISEIAMELHHPNKSQVLLDQERFLPIANVVRIMKTQMDPQAKLAKDAKECAQECVSEFISFIASEAAEICNITKRKTITADDLLTAMEATGFDNYAEPMRIFLQKYRQAHKITGPIHRTHPDYVRPPQFQMDPFVRPLFFDTEQGRRCTETQYVINGSEIVKNAPLGEEWNEQTGTLNTRADGYYMEEPMEPMPMEEVEIEEHEEIIEQDSLGAIALEQQGQMQIYVDPKTKQHFAAKETPNGMELYPLIIQDTPLQLENVSGPNQFVMNMPDGRAIPHGMGQEEPQPVSSSSVMRKIGQNPSSYAQQHHHVSHVEQHDDVEYEEEEEVDQVEEDTVPVPIAPRPAATRVQPKRTPTKRKK	not soluble
MLIGVISDTHIPDRASEIPEAVFDAFRDVELILHAGDLTSPDILTELETLAPVECVQGNMDRHYGIETPRSRLFEIESFRVGLIHGEVYPRGDTQQLRYLGLELGADVLISGHTHQPFIRELEDMVLLNPGSPTVPRLTDPSVMVLRIDGEKLDAEIIRTGAPVCRSLNFRR	not soluble
MAHHHHHHMARRLQQAWRAFAARRERRYRAAAVAQCARKRLEREEVWQLVWQDQFTELDMLCMLERQYIEEQQHVKRVRLYKYLCDPNGATNDDCGTQTPGAFNADADLLKWATLYDE	not soluble
MVDGFVQPVGEGLADQLVGHQVGYGGVQWDQCLAEVGDVAVVHFFHQAVRQVGFVEQGVEAVVAGEQRRRGEEELLGDLQHRLDPFLDAGFAGHAVGGVEQVRYLFDVGVDEAGEYVFRVLALRLDGAMQVGQAAGYQISQVTVAGFAEVRLLDEFTEGSGVHGVSHTTGMVKKRRNIAGGARRLRRDCHNRFVVMRG	not soluble
MGGSHHHHHHGMASALAELSEEALLSVLPTIRVPKAGDRVHKDECAFSFDTPESEGGLYICMNTFLGFGKQYVERHFNKTGQRVYLHLRRTRRPKEEDPATGTGDPPRKKPTRLAIGVEGGFDLSEEKFELDEDVKIVILPDYLEIARDGLGGLPDIVRDRVTSAVEALLSADSASRKQEVQAWDGEVRQVSKHAFSLKQLDNPARIPPCGWKCSKCDMRENLWLNLTDGSILCGRRYFDGSGGNNHAVEHYRETGYPLAVKLGTITPDGADVYSYDEDDMVLDPSLAEHLSHFGIDMLKMQKTDKTMTELEIDMNQRIGEWELIQESGVPLKPLFGPGYTGIRNLGNSCYLNSVVQVLFSIPDFQRKYVDKLEKIFQNAPTDPTQDFSTQVAKLGHGLLSGEYSKPVPESGDGERVPEQKEVQDGIAPRMFKALIGKGHPEFSTNRQQDAQEFFLHLINMVERNCRSSENPNEVFRFLVEEKIKCLATEKVKYTQRVDYIMQLPVPMDAALNKEELLEYEEKKRQAEEEKMALPELVRAQVPFSSCLEAYGAPEQVDDFWSTALQAKSVAVKTTRFASFPDYLVIQIKKFTFGLDWVPKKLDVSIEMPEELDISQLRGTGLQPGEEELPDIAPPLVTPDEPKAPMLDESVIIQLVEMGFPMDACRKAVYYTGNSGAEAAMNWVMSHMDDPDFANPLILPGSSGPGSTSAAADPPPEDCVTTIVSMGFSRDQALKALRATNNSLERAVDWIFSHIDDLDAEAAMDISEGRSAADSISESVPVGPKVRDGPGKYQLFAFISHMGTSTMCGHYVC	not soluble
MMDGDIIGENEDGIGVDVSDNNEIIHEISIEKGSWEIVYHEQDGYPDKAAKRTPDGNEHVNQARRFARYHVYKERGYETFPWDEHIGYIETVGDAIKSLSTEEFEDYFGEFYETVAGSLSLNSGGDITALFAAIQEKANAYYIDVYLDNDGQVEATSEVRQIIPTDDWQEELESPPEDTDRVPD	not soluble
MSWQAYVDTSLLGTGKIDRAAIVSRAGDSVWAASAGFNLSPQEIQGLAAGFQDPPSMFGTGIILAGQKYITIRAEGRSIYGKLQKEGIICVATKLCILVSHYPETTLPGEAAKITEALADYLVGVGY	soluble
